The series has as its target T1, rCmeR C69S/C166S C69S;C166S (Campylobacter jejuni NCTC 11168?) (UniProt Q0PBE2).
T1 sequence: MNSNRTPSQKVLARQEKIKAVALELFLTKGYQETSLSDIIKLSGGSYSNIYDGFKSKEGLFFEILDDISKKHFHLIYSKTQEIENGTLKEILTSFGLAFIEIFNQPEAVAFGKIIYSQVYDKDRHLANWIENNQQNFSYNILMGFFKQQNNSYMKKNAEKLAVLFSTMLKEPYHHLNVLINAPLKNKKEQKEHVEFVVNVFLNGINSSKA
Kind of series: EMSA. To be noted: 20 mM HEPES pH 7.6, 1 mM EDTA, 10 mM ([…], room temperature 30 min. (In general: In EMSA bound probe runs differently from free probe, usually more slowly.)

With “AGGCTTTGTATTAGCTCCTATGCTTATTTAAATCAAACCCTAGGTTTTTCTCTCCTAGGGTTAAAATTTTTTCATTAGTTTTTAAGTATATACTACGCTATAATATTCATTTTTAATTTTCTTTAAGAAAGGAATTTAATGAAGATAAAAGTTGGGTTGATTTTTTCAGGTATTGCTTG (double strand) [cj0089 promoter (lipoprotein operon), 179 bp]”, the binding entry is listed as “binds more weakly”.

The values are drawn from PMC3100323.
